In the RNAGym collection of RNA variant scans (doi:10.1021/acssynbio.7b00057):

B1: Pistol ribozyme (parent)
chain: GGGUCGUUGUUCCAUAAUCGCGUGGAUAUGGCACGCAAGUUUCUACCGGGCACCGUAAAUGUCCGACUGGAGCCGUUCGGGCGGCUAUAAACAGACCUCAGGCCCGAAGCGUGGCGGCACCUGCCGCCGGUGGUAAAAAAGAUCGGAAGAGCACACGUCU

Variants of: B1
Experiment: aptazyme ON/OFF ratio, guanine; higher = stronger switching; co-transcriptional cleavage with and without guanine

Variant	aptazyme ON/OFF ratio
U7G G9C U11C C12U C13U	1.25
U7G G9C U11C C12U C13A	1.37
U7G G9C U11C C12U C13G	1.27
U7G G9U U10A U11C C12A C13U	1.46
U7G G9U U10A U11C C12A C13A	1.24
U7G G9U U10A U11C C12A C13G	1.21
U7G G9U U10C U11A C12A C13G	1.16
U7G G9U U10C U11A C12A C13U	1.36
U7G G9U U10C U11A C12A C13A	1.22
U7G G9U U10A C12G C13U	1.4
U7G G9U U10A C12G C13G	1.24
U7G G9U U10A C12G C13A	1.09
U7G G9C U11G C13A	1.29
U7G G9C U11G C13U	1.17
U7G G9C U11G C13G	1.31
U7G G9U C12U C13A	1.28
U7G G9U C12U C13U	1.18
U7G G9U C12U C13G	1.31
U7G G9C U10G U11G C12A C13G	1.13
U7G G9C U10G U11G C12A C13U	1.12
U7G G9U U10A	3.84

Variant	aptazyme ON/OFF ratio
U7G G9U U10C	3.94
U7G G9U C12G	1.42
U7G G9U C12U	2.07
U7G G9U C12A	1.97
U7G G9C U11A C12G C13U	1.36
U7G G9C U11A C12G C13A	1.2
U7G G9C U11A C12G C13G	1.23
U7G G9C U11G C12A	1.41
U7G G9C U11G C12U	1.43
U7G G9C U11G C12G	1.31
U7G G9U U10A C12A C13G	1.26
U7G G9U U10A C12A C13U	1.75
U7G G9U U10A C12A C13A	1.38
U7G G9U	2.19
U7G G9U C13U	1.45
U7G G9U C13A	1.38
U7G G9U C13G	1.2
U7G G9U U10A U11C C12U C13A	1.39
U7G G9U U10A U11C C12U C13U	1.39
U7G G9U U10A U11C C12U C13G	1.27
U7G G9C U11C C12G C13G	1.07

Variant	aptazyme ON/OFF ratio
U7G G9C U11C C12G C13A	1.35
U7G G9C U11C C12G C13U	1.36
U7G G9U U10A U11G C13U	1.29
U7G G9U U10A U11G C13A	1.13
U7G G9U U10A U11G C13G	1.15
U7G G9U U10A U11A C12U C13G	1.29
U7G G9U U10A U11A C12U C13A	0.962
U7G G9U U10A U11A C12U C13U	1.28
U7G G9U U10A U11G C12G C13U	1.25
U7G G9U U10A U11G C12G C13A	1.04
U7G G9U U10A U11G C12G C13G	1.14
U7G G9U U10A U11A C12A	1.3
U7G G9U U10A U11A C12G	1.41
U7G G9U U10A U11A C12U	1.54
U7G G9C U11A C12U C13U	1.32
U7G G9C U11A C12U C13G	1.33
U7G G9C U11A C12U C13A	1.42
U7G G9U U10A U11G C12G	1.26
U7G G9U U10A U11G C12A	1.13
U7G G9U U10A U11G C12U	1.4
U7G G9C U11G C12U C13G	1.27

Variant	aptazyme ON/OFF ratio
U7G G9C U11G C12U C13A	1.43
U7G G9C U11G C12U C13U	1.2
U7G G9C U10G U11G C12G C13G	1.06
U7G G9C U10G U11G C12G C13U	1.12
U7G G9C U10G U11G C12G C13A	1.11
U7G G9U U10C U11A	3.43
U7G G9U U10A U11C C12G	1.5
U7G G9U U10A U11C C12A	1.56
U7G G9U U10A U11C C12U	1.32
U7G G9U C12G C13G	1.22
U7G G9U C12G C13U	1.36
U7G G9U C12G C13A	1.16
U7G G9U U10A U11A C13U	1.39
U7G G9U U10A U11A C13G	1.18
U7G G9U U10A U11A C13A	1.28
U7G G9U U10C C13U	1.66
U7G G9U U10C C13G	1.1
U7G G9U U10C C13A	1.37
U7G G9U U10C C12U C13U	1.34
U7G G9U U10C C12U C13A	1.38
U7G G9U U10C C12U C13G	1.31
